In one series the target is T1, ArlR full length (Staphylococcus aureus, UniProt Q9KJN4 1-219).
T1 sequence: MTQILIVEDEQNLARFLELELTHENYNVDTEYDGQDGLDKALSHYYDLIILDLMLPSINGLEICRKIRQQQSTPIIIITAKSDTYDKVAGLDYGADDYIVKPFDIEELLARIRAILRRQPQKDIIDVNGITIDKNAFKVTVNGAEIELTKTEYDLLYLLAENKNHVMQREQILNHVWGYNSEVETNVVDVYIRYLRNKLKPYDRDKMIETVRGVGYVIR
As to the kind of experiment: EMSA. (In general: A gel shift assay detects complexes by their altered migration in electrophoresis.)

The series “SEC” concerns the molecule itself. As to the kind of experiment: SEC.

The stoichiometry N is the number of molecules, sites or subunits per partner or assembly.

B1: ArlR-BdDNA-wt 24 bp (dsDNA)
DNA 1: TGATAGTATTTTAATTTGCAATAG
DNA 2: CTATTGCAAATTAAAATACTATCA
For the molecule B1, the binding result with ArlR full length is “binds”.

B2: Position 1,4&6 mutation 24 bp (dsDNA)
DNA 1: TGCTATTCTTTTAATTGGAAAGAG
DNA 2: CTCTTTCCAATTAAAAGAATAGCA
With B2, the binding result with ArlR full length is given as “no binding”.

B3: ArlR receiver domain (amino acids 1–121) (domain or fragment, S. aureus, UniProt Q9KJN4 1-121, looked up)
chain: MTQILIVEDEQNLARFLELELTHENYNVDTEYDGQDGLDKALSHYYDLIILDLMLPSINGLEICRKIRQQQSTPIIIITAKSDTYDKVAGLDYGADDYIVKPFDIEELLARIRAILRRQPQ
Turning to B3, the “stoichiometry N” value in the series “SEC” was found to be 2.
